Paper PMC12219679, “High yield purification of an isoleucine zipper-modified CD95 ligand for efficient cell apoptosis initiation and with biotin or DNA-oligomer binding domain to probe ligand functionalization effects” (BMC Biotechnology, 2025)
“And” between values parts separate entries of the source, which are not always exact repeats. Identical values can stand only once. Values belong to the binder of their own block, whether it stands above or below them.

Experiments:
[1] = molecular target: the molecule itself; test: SEC; Superdex 75 10/300 GL (Fig. 3A) or ENrich SEC 70 10 x 300 (Fig. 3B, C); PBS pH 7.4, 0.3 ml/min; sizes from a standard curve of protein standards; peak shares from Gaussian fits
FLAG-CD95L (Enzo) = molecular target: T1, FLAG-CD95L (Enzo) (UniProt P48023 130-281); test: ELISA; CD95-His coated at 2 µg/ml in PBS overnight at 4 °C; biotin-IZ-CD95L or FLAG-CD95L 0.1 nM to 100 nM in 0.5% BSA/PBST, 2 h at r.t.; detected with anti-CD95L antibody and HRP secondary; 4-parameter logistic fit; settings: both partners purified
T1 construct: CD95 ligand (CD95L, Fas ligand), soluble commercial protein with a FLAG tag; No catalogue number is printed; source: bought: Enzo Life Sciences
T1 sequence (looked up): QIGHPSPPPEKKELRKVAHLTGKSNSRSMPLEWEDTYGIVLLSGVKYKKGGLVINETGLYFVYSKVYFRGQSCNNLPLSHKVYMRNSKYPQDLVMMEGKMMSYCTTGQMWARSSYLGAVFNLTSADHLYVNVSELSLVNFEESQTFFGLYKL

B1: His-IZ-CD95L (His8-TEV-Cys-IZ-CD95L, secreted form without the IL2 signal peptide) (ligand)
chain: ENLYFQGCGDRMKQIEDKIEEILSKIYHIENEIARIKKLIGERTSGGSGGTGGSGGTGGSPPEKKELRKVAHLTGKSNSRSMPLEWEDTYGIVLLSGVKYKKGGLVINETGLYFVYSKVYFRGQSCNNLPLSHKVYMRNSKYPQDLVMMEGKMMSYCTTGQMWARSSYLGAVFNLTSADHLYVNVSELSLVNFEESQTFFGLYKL
notes: TEV protease cleavage site ENLYFQ, extra cysteine, isoleucine zipper (IZ, variant of the GCN4 leucine zipper) and linker; stands after the His8 tag in the printed insert; CD95 ligand (CD95L, Fas ligand, CD178, TNFSF6), human, extracellular domain, amino acids 137-281, without the stalk region; Origin: a designed isoleucine zipper joined to a natural stretch of CD95L; also called X-IZ-CD95L; …
stoichiometry N [1]: 3 and 2

Kd (FLAG-CD95L (Enzo)): 11.3 nM
B2: CD95-His (Sino Biological) (receptor, UniProt P25445 26-173, looked up)
chain: QVTDINSKGLELRKTVTTVETQNLEGLHHDGQFCHKPCPPGERKARDCTVNGDEPDCVPCQEGKEYTDKAHFSSKCRRCRLCDEGHGLEVEINCTRTQNTKCRCKPNFFCNSTVCEHCDPCTKCEHGIIKECTLTSNTKCKEEGSRSN
notes: CD95 (Fas, Apo-1), soluble commercial protein with a His tag; No catalogue number is printed; In the functional rows on Hela WT cells the CD95 is the endogenous receptor of the cells; this molecule stands for it; also called Fas; Apo-1; source: bought: Sino Biological
